In paper PMC9723961 (Journal for Immunotherapy of Cancer, 2022):
Each block holds one binder with its values, some of them ahead of it.

Experiments:
[1] = molecular target: T1, Recombinant CD73-His (human, UniProt P21589); assay: cryo-EM structure
[2] = molecular target: T1, Recombinant CD73-His; assay: BLI
[3] = molecular target: the molecule itself; assay: cryo-EM structure

stoichiometry N [1]: 2 antibodies per CD73 homodimer | Kd [2]: 0.2 nM
B1: Mupadolimab (antibody, V domains shown)
VH: QVQLVQSGAEVEKPGASVKVSCKASGYTFTSYWITWVRQAPGQGLEWMGDIYPGSGNTNYNEKFKTRVTITADKSTSTAYMELSSLRSEDTAVYYCAKEGGLTTEDYALDYWGQGTLVTVSS
VL: EIVLTQSPATLSLSPGERATLSCRASKNVSTSGYSYMHWYQQKPGQAPRLLIYLASNLESGIPPRFSGSGYGTDFTLTINNIESEDAAYYFCQHSRELPFTFGQGTKVEIK

B2: Recombinant CD73-His (enzyme, human, UniProt P21589 27-549, looked up)
chain: WELTILHTNDVHSRLEQTSEDSSKCVNASRCMGGVARLFTKVQQIRRAEPNVLLLDAGDQYQGTIWFTVYKGAEVAHFMNALRYDAMALGNHEFDNGVEGLIEPLLKEAKFPILSANIKAKGPLASQISGLYLPYKVLPVGDEVVGIVGYTSKETPFLSNPGTNLVFEDEITALQPEVDKLKTLNVNKIIALGHSGFEMDKLIAQKVRGVDVVVGGHSNTFLYTGNPPSKEVPAGKYPFIVTSDDGRKVPVVQAYAFGKYLGYLKIEFDERGNVISSHGNPILLNSSIPEDPSIKADINKWRIKLDNYSTQELGKTIVYLDGSSQSCRFRECNMGNLICDAMINNNLRHTDEMFWNHVSMCILNGGGIRSPIDERNNGTITWENLAAVLPFGGTFDLVQLKGSTLKKAFEHSVHRYGQSTGEFLQVGGIHVVYDLSRKPGDRVVKLDVLCTKCRVPSYDPLKMDEVYKVILPNFLANGGDGFQMIKDELLRHDSGDQDINVVSTYISKMKVIYPAVEGRIKFS
binding result [3]: binds
